Measurements reported in publication PMC5074368.
One block for each molecule: values may come before it.

Key:
[1] = molecular target: NDP52 in the prey vector pVP16 (UniProt Q13137); assay: mammalian two-hybrid assay; conditions: parent: est. 100, read off a plot
[2] = molecular target: LMTK2 in the prey vector pVP16 (UniProt Q8IWU2); assay: mammalian two-hybrid assay; conditions: n = 4; parent: est. 100; read off a plot
[3] = molecular target: Dab2 in the prey vector pVP16 (UniProt P98082); assay: mammalian two-hybrid assay; conditions: parent: est. 100, read off a plot
[4] = molecular target: optineurin in the prey vector pVP16 (UniProt Q96CV9); assay: mammalian two-hybrid assay; conditions: n = 4; parent: est. 100; read off a plot
[5] = molecular target: TOM1 in the prey vector pVP16 (UniProt O60784); assay: mammalian two-hybrid assay; conditions: parent: est. 100, read off a plot
[6] = molecular target: GIPC in the prey vector pVP16 (UniProt O14908); assay: mammalian two-hybrid assay; conditions: parent: est. 100, read off a plot
[7] = molecular target: F-actin (cellular actin filaments of RPE cells) (human (endogenous in RPE cells)) (UniProt P60709); assay: co-sedimentation; actin pelleting assay: homogenate of RPE cells expressing GFP-myosin VI constructs in F-actin stabilisation buffer (50 mM PIPES pH 6.9, 50 mM NaCl, mild detergents), 100 000 x g, 1 h, 37°C; quantitative immunoblotting, pellet/supernatant normalised to endogenous myosin VI; the pellet also holds cellular membranes
[8] = molecular target: F-actin (cellular actin filaments of RPE cells), P60709; assay: cell fractionation into supernatant and F-actin-enriched pellet, quantitative immunoblotting; conditions: chain shown with the change, n = 3, parent: est. 1.3, read off a plot

Molecule: GFP-tagged full-length myosin VI-NI RRL–AAA (from UniProt Q9UM54-1 1-1285) (natural protein)
fold increase of the pellet/supernatant ratio against WT myosin VI [7]: > 5 fold

Molecule: Myosin VI globular tail (amino acids 1036–1294), wild type, in the bait vector pM L1109A
percent of parent (% wildtype control) ([1]; n = 3): 100
percent of parent (% wildtype control) ([6]; n = 3): 32

Molecule: Myosin VI globular tail (amino acids 1036–1294), wild type, in the bait vector pM R1107A
percent of parent (% wildtype control) ([1]; n = 3): 76
percent of parent (% wildtype control) ([6]; n = 3): 69

Molecule: Myosin VI globular tail (amino acids 1036–1294), wild type, in the bait vector pM R1108A
percent of parent (% wildtype control) ([1]; n = 3): 16
percent of parent (% wildtype control) ([6]; n = 3): 2

The next lines start with the values.

percent of parent (% wildtype control) ([1]; n = 4): 71
percent of parent (% wildtype control) [2]: 0
percent of parent (% wildtype control) ([3]; n = 4): 1
percent of parent (% wildtype control) ([3]; n = 5): 1
percent of parent (% wildtype control) [4]: 120
percent of parent (% wildtype control) ([5]; n = 3): 2
percent of parent (% wildtype control) ([5]; n = 4): 2
percent of parent (% wildtype control) ([6]; n = 4): 59
Molecule: Myosin VI globular tail (amino acids 1036–1294), wild type, in the bait vector pM W1253A

fold increase of the pellet/supernatant ratio against WT myosin VI [7]: 3 fold
Molecule: GFP-tagged full-length myosin VI-NI WWY–WLY (from UniProt Q9UM54-1 1-1285) (natural protein)

other: pellet:supernatant (P:S) ratio [8]: 1.2
B1: GFP-tagged full-length myosin VI-NI, wild type, Q9UM54-1 E1251A (protein)
chain: MEDGKPVWAPHPTDGFQMGNIVDIGPDSLTIEPLNQKGKTFLALINQVFPAEEDSKKDVEDNCSLMYLNEATLLHNIKVRYSKDRIYTYVANILIAVNPYFDIPKIYSSEAIKSYQGKSLGTRPPHVFAIADKAFRDMKVLKMSQSIIVSGESGAGKTENTKFVLRYLTESYGTGQDIDDRIVEANPLLEAFGNAKTVRNNNSSRFGKFVEIHFNEKSSVVGGFVSHYLLEKSRICVQGKEERNYHIFYRLCAGASEDIREKLHLSSPDNFRYLNRGCTRYFANKETDKQILQNRKSPEYLKAGSMKDPLLDDHGDFIRMCTAMKKIGLDDEEKLDLFRVVAGVLHLGNIDFEEAGSTSGGCNLKNKSAQSLEYCAELLGLDQDDLRVSLTTRVMLTTAGGTKGTVIKVPLKVEQANNARDALAKTVYSHLFDHVVNRVNQCFPFETSSYFIGVLDIAGFEYFEHNSFEQFCINYCNEKLQQFFNERILKEEQELYQKEGLGVNEVHYVDNQDCIDLIEAKLVGILDILDEENRLPQPSDQHFTSAVHQKHKDHFRLTIPRKSKLAVHRNIRDDEGFIIRHFAGAVCYETTQFVEKNNDALHMSLESLICESRDKFIRELFESSTNNNKDTKQKAGKLSFISVGNKFKTQLNLLLDKLRSTGASFIRCIKPNLKMTSHHFEGAQILSQLQCSGMVSVLDLMQGGYPSRASFHELYNMYKKYMPDKLARLDPRLFCKALFKALGLNENDYKFGLTKVFFRPGKFAEFDQIMKSDPDHLAELVKRVNHWLTCSRWKKVQWCSLSVIKLKNKIKYRAEACIKMQKTIRMWLCKRRHKPRIDGLVKVGTLKKRLDKFNEVVSVLKDGKPEMNKQIKNLEISIDTLMAKIKSTMMTQEQIQKEYDALVKSSEELLSALQKKKQQEEEAERLRRIQEEMEKERKRREEDEKRRRKEEEERRMKLEMEAKRKQEEEERKKREDDEKRIQAEVEAQLARQKEEESQQQAVLEQERRDRELALRIAQSEAELISDEAQADLALRRNDGTRPKMTPEQMAKEMSEFLSRGPAVLATKAAAGTKKYDLSKWKYAELRDTINTSCDIELLAACREEFHRRLKVYHAWKSKNKKRNTETEQRAPKSVTDYDFAPFLNNSPQQNPAAQIPARQREIEMNRQQRFFRIPFIRPADQYKDPQSKKKGWWYAHFDGPWIARQMELHPDKPPILLVAGKDDMEMCELNLEETGLTRKRGAEILPRQFEAIWERCGGIQYLQNAIESRQARPTYATAMLQSLLK
